Here are results for eight substances from US20040175786A1.

One experiment addresses human CD3 (TCR/CD3 complex) on T-cells (human) (UniProt P07766). Description: cell-based or functional assay.
Substance monoclonal OKT3 antibody returned an IL-2 production of 467 pg/mL; an INF-γ-production of 1380 pg/mL; a T-cell proliferation, immobilized Ak [cpm × 10^3] of 12500 cpm; a T-cell proliferation, soluble Ak [cpm × 10^3] of 9500 cpm. Also, the TNF-α-production turned out to be 960 pg/mL.
Substance “scOKT3-γ?IgM, C575S (from UniProt P01871 218-435) (Fc fusion)” returned an IL-2 production of 65 pg/mL; an INF-γ-production of 202 pg/mL; a T-cell proliferation, immobilized Ak [cpm × 10^3] of 3300 cpm; a T-cell proliferation, soluble Ak [cpm × 10^3] of 1900 cpm. In addition, the TNF-α-production amounted to 149 pg/mL.
On to “scOKT3-γ?IgM, C575S Monomers (from UniProt P01871 218-435) (Fc fusion)”, for which the IL-2 production came out at 73 pg/mL; the INF-γ-production stood at 189 pg/mL; the T-cell proliferation, immobilized Ak [cpm × 10^3] came to 3700 cpm; the T-cell proliferation, soluble Ak [cpm × 10^3] worked out at 2400 cpm. The TNF-α-production was 169 pg/mL.
For “scOKT3-γ?IgM, WT (from UniProt P01871 218-435) (Fc fusion)”, the IL-2 production stood at 47 pg/mL; the INF-γ-production amounted to 244 pg/mL; the T-cell proliferation, immobilized Ak [cpm × 10^3] was determined as 4600 cpm; the T-cell proliferation, soluble Ak [cpm × 10^3] came to 2600 cpm. Further, the TNF-α-production is 167 pg/mL.
“scOKT3-γ?IgM, WT Monomers (from UniProt P01871 218-435) (Fc fusion)” displayed an IL-2 production of 52 pg/mL; an INF-γ-production of 222 pg/mL; a T-cell proliferation, immobilized Ak [cpm × 10^3] of 4000 cpm; a T-cell proliferation, soluble Ak [cpm × 10^3] of 1800 cpm. The same substance registered a TNF-α-production of 166 pg/mL.
“scOKT3-γ?IgM, WT Pentamers/hexamers (from UniProt P01871 218-435) (Fc fusion)”: the IL-2 production is 42 pg/mL; the INF-γ-production came out at 232 pg/mL; the T-cell proliferation, immobilized Ak [cpm × 10^3] is 3500 cpm; the T-cell proliferation, soluble Ak [cpm × 10^3] came to 2100 cpm. The substance also showed a TNF-α-production of 158 pg/mL.

A further experiment shares this target. The experiment in a line: FACS staining of CD3+ Jurkat cells.
Turning to monoclonal OKT3 antibody, the percent of Jurkat cells with positive staining was above 90%.

The next experiment has the same target. The experiment in a line: FACS staining of CD3+ Jurkat cells with polymer fractions.
Substance scOKT3-γ?IgM monomers came in with a percent of Jurkat cells with positive staining of 80%.
On to scOKT3-γ?IgM pentamers, for which the percent of Jurkat cells with positive staining is above 90%.
